Source: publication PMC12527216

Tests used:
[1] = target: recombinant soluble CD4 engineered with a deletion in the transmembrane region but retaining the cytoplasmic tail (UniProt P01730); test: ELISA; as a1, but HIVBaL treated beforehand with 1% (w/w) (110 mM) L-lactic acid at pH 3.8 for 60 min at 37°C
[2] = target: recombinant soluble CD4 engineered with a deletion in the transmembrane region but retaining the cytoplasmic tail (UniProt P01730); test: ELISA; as a1, but HIVBaL treated beforehand with acidified media at pH 3.8 (HCl adjusted) for 60 min at 37°C

“virion-associated trimeric gp120 envelope glycoprotein of HIV-1 BaL (on HIVBaL virions) (natural protein)” was tested, and the fold reduction in rCD4 binding relative to untreated HIV-1 [1] was 2 fold and the fold reduction in rCD4 binding relative to untreated HIV-1 [2] was 2 fold.
